For 27 sequences, protein stability index results are on record in the supplement of paper PMC10724198.

In this series the test system is Saccharomyces cerevisiae. Put plainly: protein stability index of tFT-peptide fusion (C-terminal peptide) (PSI (0-1 scale)); higher = more stable (slower turnover). The note with it: temperature: 30 C. As for the experimental part: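 MPS profiling in S. cerevisiae of the yeast C-terminome library: the last 12 aa of each annotated ORF are fused to the C-terminus of a sfGFP-mCherry timer, after a GGGS linker. Cells are FACS-sorted into 8 mCherry/sfGFP bins and deep-sequenced. PSI runs from 0 (unstable) to 1 (stable); wild type and das1Δ backgrounds, two technical replicates each.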

Where [1] appears, read: genetic background: das1 deletion.

± gives the standard deviation of the averaged measurements.

On to TAEPNRNVNQMP [YDL218W C-terminal 12 aa], for which the protein stability index by setting is: under setting [1], 0.678 ± 0.017; (genetic background: wild type) 0.662 ± 0.013.

As to TASEIQRTKSSI [YGR035C C-terminal 12 aa], the protein stability index is, setting by setting: under setting [1], 0.711 ± 0.03; (genetic background: wild type) 0.683 ± 0.022.

With TDEFDMLIGIDH [COG6 C-terminal 12 aa], the protein stability index is 0.697 ± 0.024 under setting [1] and 0.707 ± 0.025 (genetic background: wild type).

TDLENETFIYPL [YCT1 C-terminal 12 aa]: the protein stability index by setting is: under setting [1], 0.722 ± 0.022; (genetic background: wild type) 0.793 ± 0.072.

As for TDNTVYQKFLKY [ILV1 C-terminal 12 aa], the protein stability index under setting [1] worked out at 0.674 ± 0.014 and the protein stability index (genetic background: wild type) was found to be 0.692 ± 0.041.

In turn, TDVKKFIHELCE [TRP3 C-terminal 12 aa] showed a protein stability index under setting [1] of 0.69 ± 0.014 and a protein stability index (genetic background: wild type) of 0.679 ± 0.034.

For the sequence TEKKINTRPPFR [DAM1 C-terminal 12 aa], the protein stability index was found to be 0.7012 ± 0.0011 under setting [1] and 0.656 ± 0.011 (genetic background: wild type).

TEMATDASARMV [TPO4 C-terminal 12 aa]: the protein stability index is, setting by setting: under setting [1], 0.687 ± 0.0097; (genetic background: wild type) 0.682 ± 0.0089.

With TEPVKQVLGNKE [NMA1 C-terminal 12 aa], the protein stability index was found to be 0.689 ± 0.012 under setting [1] and 0.675 ± 0.014 (genetic background: wild type).

Take TFFDIRQKFVVV [BOP2 C-terminal 12 aa]: the protein stability index came out at 0.493 ± 0.012 under setting [1] and 0.44744 ± 0.00038 (genetic background: wild type).

In the case of TFLYYYFPLPTN [YPL080C C-terminal 12 aa], the protein stability index under setting [1] turned out to be 0.656 ± 0.029 and the protein stability index (genetic background: wild type) was 0.69 ± 0.028.

With “TFPLVMMKTTYY [YFR009W-A C-terminal 12 aa]”, the protein stability index under setting [1] turned out to be 0.72 ± 0.065 and the protein stability index (genetic background: wild type) was determined as 0.697 ± 0.044.

For the sequence TGTSNSVLVIIT [YPL136W C-terminal 12 aa], the protein stability index is 0.677 ± 0.013 under setting [1] and 0.684 ± 0.033 (genetic background: wild type).

Turning to THKKPGFENYSI [IRC13 C-terminal 12 aa], the protein stability index is, setting by setting: under setting [1], 0.70632 ± 0.00041; (genetic background: wild type) 0.704 ± 0.017.

Sequence TIAIGKIVKIAE [SUP35 C-terminal 12 aa] displayed a protein stability index under setting [1] of 0.7085 ± 0.0052 and a protein stability index (genetic background: wild type) of 0.685 ± 0.013.

In turn, “TIIYPLFIFFSL [YMR105W-A C-terminal 12 aa]” yielded a protein stability index under setting [1] of 0.312 ± 0.022 and a protein stability index (genetic background: wild type) of 0.225 ± 0.0044.

Regarding TISRLPPRSWTN [YCL042W C-terminal 12 aa], the protein stability index turned out to be 0.717 ± 0.037 under setting [1] and 0.739 ± 0.015 (genetic background: wild type).

TIYDGEAVAKYI [PRE5 C-terminal 12 aa]: the protein stability index reads like this: under setting [1], 0.6775 ± 0.0025; (genetic background: wild type) 0.7 ± 0.046.

TKAIEDAKKEMK [NUP2 C-terminal 12 aa] gave a protein stability index under setting [1] of 0.714 ± 0.013 and a protein stability index (genetic background: wild type) of 0.737 ± 0.11.

In the case of TKISIRKAPKFF [MRPL31 C-terminal 12 aa], the protein stability index worked out at 0.701 ± 0.019 under setting [1] and 0.656 ± 0.024 (genetic background: wild type).

Consider TKNLVPGFSDLM [SEC61 C-terminal 12 aa], for which the protein stability index came out at 0.708 ± 0.012 under setting [1] and 0.676 ± 0.011 (genetic background: wild type).

TKNTCIRRLSNQ [YLR031W C-terminal 12 aa] registered a protein stability index under setting [1] of 0.709 ± 0.018 and a protein stability index (genetic background: wild type) of 0.698 ± 0.036.

The sequence TLISGKEDGPTI [SRY1 C-terminal 12 aa] showed a protein stability index under setting [1] of 0.69 ± 0.028 and a protein stability index (genetic background: wild type) of 0.701 ± 0.044.

As for TLKKRFGLVPGQ [NOP10 C-terminal 12 aa], the protein stability index was 0.7141 ± 0.0036 under setting [1] and 0.686 ± 0.029 (genetic background: wild type).

In the case of TLKKVTQNFYFD [LMO1 C-terminal 12 aa], the protein stability index was 0.7094 ± 0.0054 under setting [1] and 0.6724 ± 0.0018 (genetic background: wild type).

Regarding TLVADQEDDVIF [VMA8 C-terminal 12 aa], the protein stability index reads like this: under setting [1], 0.7039 ± 0.0067; (genetic background: wild type) 0.715 ± 0.025.

As to TLVGTPGYRITL [RCE1 C-terminal 12 aa], the protein stability index by setting is: under setting [1], 0.7168 ± 0.0018; (genetic background: wild type) 0.695 ± 0.02.
